Test results: patent US20150086555A1 (THERACLONE SCIENCES, published 2015)

How the values were obtained:
[1] = biological target: recombinant homotrimeric HA A/chicken/Vietnam/NCVD-016/08 H5N1 (Influenza A virus …); assay: protein microarray, purified IgG, trimeric HA
[2] = biological target: recombinant homotrimeric HA A/Indonesia/5/05 H5N1 (Influenza A virus …); assay: protein microarray, purified IgG, trimeric HA
[3] = biological target: recombinant homotrimeric HA A/northern shoveler/California/HKWF115/07 H6N4 (Influenza A virus A/northern …); assay: protein microarray, purified IgG, trimeric HA
[4] = biological target: recombinant homotrimeric HA A/Solomon Islands/3/06 H1N1 (Influenza A virus A/Solomon …); assay: protein microarray, purified IgG, trimeric HA
[5] = biological target: recombinant homotrimeric HA A/California/4/09 H1N1 (Influenza A virus …); assay: protein microarray, purified IgG, trimeric HA
[6] = biological target: recombinant homotrimeric HA A/Japan/305/57 H2N2 (Influenza A virus A/Japan/305/1957(H2N2)); assay: protein microarray, purified IgG, trimeric HA
[7] = biological target: recombinant homotrimeric HA A/Anhui/1/05 H5N1 (Influenza A virus A/Anhui/1/2005(H5N1)); assay: protein microarray, purified IgG, trimeric HA
[8] = biological target: recombinant homotrimeric HA A/Egypt/3300-NAMRU3/08 H5N1 (Influenza A virus …); assay: protein microarray, purified IgG, trimeric HA
[9] = biological target: recombinant homotrimeric HA A/Hong Kong/1073/99 H9N2 (Influenza A virus A/Hong Kong/1073/99 …); assay: protein microarray, purified IgG, trimeric HA
[10] = biological target: recombinant homotrimeric HA A/Wisconsin/67/05 H3N2 (Influenza A virus …); assay: protein microarray, purified IgG, trimeric HA
[11] = biological target: recombinant homotrimeric HA A/Hong Kong/2108/03 H9N2 (Influenza A virus A/HK/2108/2003(H9N2)); assay: protein microarray, purified IgG, trimeric HA
[12] = biological target: recombinant homotrimeric HA A/Hong Kong/156/97 H5N1 (Influenza A virus A/Hong Kong/156/97 …); assay: protein microarray, purified IgG, trimeric HA
[13] = biological target: recombinant homotrimeric HA A/Vietnam/1203/04 H5N1 (Influenza A virus …); assay: protein microarray, purified IgG, trimeric HA
[14] = biological target: recombinant homotrimeric HA A/Netherlands/219/03 H7N7 (Influenza A virus …); assay: protein microarray, purified IgG, trimeric HA
[15] = biological target: recombinant homotrimeric HA A/South Carolina/1/18 H1N1 (Influenza A virus A/South Carolina/1/18 …); assay: protein microarray, purified IgG, trimeric HA
[16] = biological target: recombinant soluble homotrimeric HA, A/Solomon Islands/3/06 H1N1 (Influenza A virus A/Solomon …); assay: microarray, transfection SN IgG, trimeric HA
[17] = biological target: recombinant soluble homotrimeric HA, A/Wisconsin/67/05 H3N2 (Influenza A virus …); assay: microarray, transfection SN IgG, trimeric HA
[18] = biological target: recombinant soluble homotrimeric HA, A/South Carolina/1/18 H1N1 (Influenza A virus A/South Carolina/1/18 …); assay: microarray, transfection SN IgG, trimeric HA
[19] = biological target: recombinant soluble homotrimeric HA, A/Indonesia/5/05 H5N1 (Influenza A virus …); assay: microarray, transfection SN IgG, trimeric HA
[20] = biological target: recombinant soluble homotrimeric HA, A/northern shoveler/California/HKWF115/07 H6N4 (Influenza A virus A/northern …); assay: microarray, transfection SN IgG, trimeric HA
[21] = biological target: recombinant soluble homotrimeric HA, A/Anhui/1/05 H5N1 (Influenza A virus A/Anhui/1/2005(H5N1)); assay: microarray, transfection SN IgG, trimeric HA
[22] = biological target: recombinant soluble homotrimeric HA, A/swine/Ontario/01911-2/99 H4N6 (Influenza A virus …); assay: microarray, transfection SN IgG, trimeric HA
[23] = biological target: recombinant soluble homotrimeric HA, A/Egypt/3300-NAMRU3/08 H5N1 (Influenza A virus …); assay: microarray, transfection SN IgG, trimeric HA
[24] = biological target: recombinant soluble homotrimeric HA, A/Vietnam/1203/04 H5N1 (Influenza A virus …); assay: microarray, transfection SN IgG, trimeric HA
[25] = biological target: recombinant soluble homotrimeric HA, A/Japan/305/57 H2N2 (Influenza A virus A/Japan/305/1957(H2N2)); assay: microarray, transfection SN IgG, trimeric HA
[26] = biological target: recombinant soluble homotrimeric HA, A/Hong Kong/156/97 H5N1 (Influenza A virus A/Hong Kong/156/97 …); assay: microarray, transfection SN IgG, trimeric HA
[27] = biological target: recombinant soluble homotrimeric HA, A/California/4/09 H1N1 (Influenza A virus …); assay: microarray, transfection SN IgG, trimeric HA
[28] = biological target: recombinant soluble homotrimeric HA, A/chicken/Vietnam/NCVD-016/08 H5N1 (Influenza A virus …); assay: microarray, transfection SN IgG, trimeric HA
[29] = biological target: recombinant soluble homotrimeric HA, A/Netherlands/219/03 H7N7 (Influenza A virus …); assay: microarray, transfection SN IgG, trimeric HA
[30] = biological target: recombinant soluble homotrimeric HA, A/duck/Yangzhou/02/05 H8N4 (Influenza A virus …); assay: microarray, transfection SN IgG, trimeric HA
[31] = biological target: hemagglutinin on live influenza A virus, A/California/4/09 H1N1 (Influenza A virus …); assay: cell-based or functional assay
[32] = biological target: hemagglutinin on whole influenza A virions, A/Solomon Islands/3/06 H1N1 (Influenza A virus A/Solomon …); assay: cell-based or functional assay
[33] = biological target: hemagglutinin on whole influenza A virions, A/Wisconsin/67/05 H3N2 (Influenza A virus …); assay: cell-based or functional assay
[34] = biological target: recombinant soluble homotrimeric HA of A/Anhui/1/05 (H5N1) (Influenza A virus A/Anhui/1/2005(H5N1)); assay: HA microarray, BCC supernatant
[35] = biological target: recombinant soluble homotrimeric HA of A/duck/Yangzhou/02/05 (H8N4) (Influenza A virus …); assay: HA microarray, BCC supernatant
[36] = biological target: recombinant soluble homotrimeric HA of A/Wisconsin/67/05 (H3N2) (Influenza A virus …); assay: HA microarray, BCC supernatant
[37] = biological target: recombinant soluble homotrimeric HA of A/California/4/09 (H1N1) (Influenza A virus …); assay: HA microarray, BCC supernatant
[38] = biological target: recombinant soluble homotrimeric HA of A/Hong Kong/2108/03 (H9N2) (Influenza A virus A/HK/2108/2003(H9N2)); assay: HA microarray, BCC supernatant
[39] = biological target: recombinant soluble homotrimeric HA of A/northern shoveler/California/HKWF115/07 (H6) (Influenza A virus A/northern …); assay: HA microarray, BCC supernatant
[40] = biological target: recombinant soluble homotrimeric HA of A/Vietnam/1203/04 (H5N1) (Influenza A virus …); assay: HA microarray, BCC supernatant
[41] = biological target: recombinant soluble homotrimeric HA of A/Netherlands/219/03 (H7N7) (Influenza A virus …); assay: HA microarray, BCC supernatant
[42] = biological target: recombinant soluble homotrimeric HA of A/swine/Ontario/01911-2/99 (H4N6) (Influenza A virus …); assay: HA microarray, BCC supernatant
[43] = biological target: recombinant soluble homotrimeric HA of A/Indonesia/5/05 (H5N1) (Influenza A virus …); assay: HA microarray, BCC supernatant
[44] = biological target: recombinant soluble homotrimeric HA of A/Solomon Islands/3/06 (H1N1) (Influenza A virus A/Solomon …); assay: HA microarray, BCC supernatant
[45] = biological target: recombinant soluble homotrimeric HA of A/Japan/305/57 (H2N2) (Influenza A virus A/Japan/305/1957(H2N2)); assay: HA microarray, BCC supernatant
[46] = biological target: recombinant soluble homotrimeric HA of A/chicken/Vietnam/NCVD-016/08 (H5N1) (Influenza A virus …); assay: HA microarray, BCC supernatant

Row | Binder | Trimeric HA Binding: RLU [16] | Trimeric HA Binding: RLU [17] | Trimeric HA Binding: RLU [18] | Trimeric HA Binding: RLU [19] | Trimeric HA Binding: RLU [20] | Trimeric HA Binding: RLU [21] | Trimeric HA Binding: RLU [22] | Trimeric HA Binding: RLU [23] | Trimeric HA Binding: RLU [24] | Trimeric HA Binding: RLU [25] | Trimeric HA Binding: RLU [26] | Trimeric HA Binding: RLU [27] | Trimeric HA Binding: RLU [28] | Trimeric HA Binding: RLU [29] | Trimeric HA Binding: RLU [30] | % Neutralization [31] | % Neutralization [32] | % Neutralization [33] | other results
1 | TCN-533 (5256_A17a) (antibody, V domains shown) VH: QVQLVQSGADVKKPGSSVTVSCKASGGSFSNYGINWVRQAPGQGLEWMGGIIPLINAPNYAPKFQGRVTITADMFSNIVSLQLTSLRTDDTAVYYCARRKMTTAIDYWGQGTLVTVSS VL: QPVLTQPPSASASLGASVTLTCTLSSAYSNYKVDWYQQRPGKGPRFVMRVGTGGIVGSKGDGIPDRFSVLGSGLNRYLTIKNIQEEDESDYHCGADHGSGSNFVSPYVFGGGTKLTVL |  |  |  |  |  |  |  |  |  |  |  |  |  |  |  |  |  |  | Trimeric HA Binding: RLU [1]: 5470 RLU; Trimeric HA Binding: RLU [2]: 23100 RLU; Trimeric HA Binding: RLU [3]: 20400 RLU; Trimeric HA Binding: RLU [4]: 12000 RLU; Trimeric HA Binding: RLU [5]: 24000 RLU; Trimeric HA Binding: RLU [6]: 23400 RLU; Trimeric HA Binding: RLU [7]: 5650 RLU; Trimeric HA Binding: RLU [8]: 20600 RLU; Trimeric HA Binding: RLU [9]: 5810 RLU; Trimeric HA Binding: RLU [10]: 308 RLU; Trimeric HA Binding: RLU [11]: 164 RLU; Trimeric HA Binding: RLU [12]: 13200 RLU; Trimeric HA Binding: RLU [13]: 26900 RLU; Trimeric HA Binding: RLU [14]: 712 RLU; Trimeric HA Binding: RLU [15]: 8670 RLU
2 | TCN-556 (5089_K12) (antibody, V domains shown) VH: QVQLVQSGAEVKKPGASVKVSCKASGYTFIGYDMHWVRQAPGQGLEWMGWINAKRGGTNYAQKFQGRVTMTRDTSISTAYMELNSLRSDDTAVYYCARGVGSRTTIFGVLNPEFDYWGQGTLVTVSS VL: QSALTQPPSASGSPGQSVTISCTGSSSDVGGYDYVSWYQQHPGKAPKLLIYEVTKRPSGVPDRFSGSKSGNTASLTVSGLQAEDEADYYCSSYAGNYNHVFGPGTKVTVL | 23400 RLU | 44700 RLU | 32700 RLU | 15200 RLU | 34800 RLU | 13800 RLU | 19300 RLU | 16600 RLU | 17400 RLU | 22800 RLU | 24600 RLU | 20900 RLU | 22700 RLU | 43600 RLU | 22400 RLU | 0% | 0% | 15% | 
3 | TCN-560 (5084_P10) (antibody, V domains shown) VH: EVQLVESGGGLVQPGGSLRLSCAASGFIFRNYWMSWVRQAPGKGLEWVANIKQDGREKYYVDSLRGRVNISRDNAENSLYLHMNSLRVEDTAVYFCARARMVVVTGDGFDVWGHGTMVTVSS VL: DIQMTQSPSSLSASVGDRVTITCRASQNIKRYFNWYQQKPGKAPKLLIYAASNLENGVPSRFSGSGSGTDFTLTISSLQPEDFATYYCQQSFSKSWTFGQGTNVDIK [TCN-560 (5084_P10), listing 1 of 2 here] | 22400 RLU | 55400 RLU | 30500 RLU | 17000 RLU | 35900 RLU | 18600 RLU | 16800 RLU | 18700 RLU | 19500 RLU | 25900 RLU | 29300 RLU | 31100 RLU | 18200 RLU | 32100 RLU | 27900 RLU | 0% | 0% | 4% | 
4 | TCN-560 (5084_P10) (antibody, V domains shown) VH: EVQLVESGGGLVQPGGSLRLSCAASGFIFRNYWMSWVRQAPGKGLEWVANIKQDGREKYYVDSLRGRVNISRDNAENSLYLHMNSLRVEDTAVYFCARARMVVVTGDGFDVWGHGTMVTVSS VL: DIQMTQSPSSLSASVGDRVTITCRASQNIKRYFNWYQQKPGKAPKLLIYAASNLENGVPSRFSGSGSGTDFTLTISSLQPEDFATYYCQQSFSKSWTFGQGTNVDIK [TCN-560 (5084_P10), listing 2 of 2 here] |  |  |  |  |  |  |  |  |  |  |  |  |  |  |  |  |  |  | Trimeric HA Binding: RLU [34]: 49100 RLU; Trimeric HA Binding: RLU [35]: 44700 RLU; Trimeric HA Binding: RLU [36]: 49100 RLU; Trimeric HA Binding: RLU [37]: 49200 RLU; Trimeric HA Binding: RLU [38]: 49400 RLU; Trimeric HA Binding: RLU [39]: 42300 RLU; Trimeric HA Binding: RLU [40]: 44000 RLU; Trimeric HA Binding: RLU [41]: 48500 RLU; Trimeric HA Binding: RLU [42]: 41600 RLU; Trimeric HA Binding: RLU [43]: 35900 RLU; Trimeric HA Binding: RLU [44]: 38800 RLU; Trimeric HA Binding: RLU [45]: 46700 RLU; Trimeric HA Binding: RLU [46]: 46000 RLU
